Reference: US20220010021A1 (Sanofi, published 2022)
Numbering of substitutions follows the chain as printed.

T1: beta-Klotho (KLB) (Homo sapiens (Human), UniProt Q86Z14 1-996)
T1 construct: also called β-Klotho; not shown: C-terminal His tag of the bought R&D Systems protein
T1 sequence: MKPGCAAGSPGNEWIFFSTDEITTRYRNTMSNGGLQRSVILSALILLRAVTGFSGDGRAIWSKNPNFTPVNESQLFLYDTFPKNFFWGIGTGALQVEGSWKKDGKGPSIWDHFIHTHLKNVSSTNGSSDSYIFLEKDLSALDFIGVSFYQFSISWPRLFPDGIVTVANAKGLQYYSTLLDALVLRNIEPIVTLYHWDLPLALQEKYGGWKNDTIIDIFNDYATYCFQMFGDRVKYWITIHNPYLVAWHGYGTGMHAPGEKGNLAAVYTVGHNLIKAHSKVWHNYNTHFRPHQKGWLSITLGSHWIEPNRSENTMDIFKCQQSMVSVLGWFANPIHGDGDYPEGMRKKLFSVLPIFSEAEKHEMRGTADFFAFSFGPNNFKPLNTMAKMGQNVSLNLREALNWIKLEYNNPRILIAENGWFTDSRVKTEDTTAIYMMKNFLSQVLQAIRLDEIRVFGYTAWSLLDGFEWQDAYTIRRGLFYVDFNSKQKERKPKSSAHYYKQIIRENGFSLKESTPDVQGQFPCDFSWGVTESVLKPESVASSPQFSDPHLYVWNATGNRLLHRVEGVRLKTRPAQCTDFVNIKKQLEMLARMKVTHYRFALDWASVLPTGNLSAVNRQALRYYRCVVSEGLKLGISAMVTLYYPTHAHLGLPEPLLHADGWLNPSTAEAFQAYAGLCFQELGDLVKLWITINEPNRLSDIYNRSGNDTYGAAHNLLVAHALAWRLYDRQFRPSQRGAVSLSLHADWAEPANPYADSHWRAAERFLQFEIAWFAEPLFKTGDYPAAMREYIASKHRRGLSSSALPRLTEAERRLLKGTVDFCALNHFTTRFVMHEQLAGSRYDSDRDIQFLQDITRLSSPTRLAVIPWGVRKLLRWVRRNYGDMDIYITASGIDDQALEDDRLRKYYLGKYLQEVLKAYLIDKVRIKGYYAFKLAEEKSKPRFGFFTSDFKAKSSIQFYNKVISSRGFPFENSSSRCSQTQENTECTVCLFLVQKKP

B1: 16H7 variant with light chain substitution S94G (antibody, human IgG4 S228P, lambda, V domains shown)
VH: not shown
VL: SYVLTQPPSVSVAPGQTARITCGGNNIGSESVHWYQQKPGQAPVLVVYDDSDRPSGIPERFSGSNSGNTATLTISRVEAGDEADYYCQVWDGNGDHVVFGGGTKLTVLG
notes: IgG4 backbone was used
B2: 16H7 variant with light chain substitution H96D (antibody, human IgG4 S228P, lambda, V domains shown)
VH: not shown
VL: B1 VL with G94S, H96D
notes: IgG4 backbone was used
B3: 16H7 variant with light chain substitution H96R (antibody, human IgG4 S228P, lambda, V domains shown)
VH: not shown
VL: B1 VL with G94S, H96R
notes: IgG4 backbone was used
B4: 16H7 variant with light chain substitution D95M (antibody, human IgG4 S228P, lambda, V domains shown)
VH: not shown
VL: B1 VL with G94S, D95M
notes: IgG4 backbone was used
B5: 16H7 variant with light chain substitution N93T (antibody, human IgG4 S228P, lambda, V domains shown)
VH: not shown
VL: B1 VL with N93T, G94S
notes: IgG4 backbone was used
B6: 16H7 variant with light chain substitution N93C (antibody, human IgG4 S228P, lambda, V domains shown)
VH: not shown
VL: B1 VL with N93C, G94S
notes: IgG4 backbone was used
B7: 16H7 variant with light chain substitution N93D (antibody, human IgG4 S228P, lambda, V domains shown)
VH: not shown
VL: B1 VL with N93D, G94S
notes: IgG4 backbone was used
B8: 16H7 variant with light chain substitution H96V (antibody, human IgG4 S228P, lambda, V domains shown)
VH: not shown
VL: B1 VL with G94S, H96V
notes: IgG4 backbone was used
B9: 16H7 variant with light chain substitution N93V (antibody, human IgG4 S228P, lambda, V domains shown)
VH: not shown
VL: B1 VL with N93V, G94S
notes: IgG4 backbone was used
B10: 16H7 variant with light chain substitution N93F (antibody, human IgG4 S228P, lambda, V domains shown)
VH: not shown
VL: B1 VL with N93F, G94S
notes: IgG4 backbone was used
B11: 16H7 variant with light chain substitution H96N (antibody, human IgG4 S228P, lambda, V domains shown)
VH: not shown
VL: B1 VL with G94S, H96N
notes: IgG4 backbone was used
B12: 16H7 variant with light chain substitution S94C (antibody, human IgG4 S228P, lambda, V domains shown)
VH: not shown
VL: B1 VL with G94C
notes: IgG4 backbone was used
B13: 16H7 variant with light chain substitution N93A (antibody, human IgG4 S228P, lambda, V domains shown)
VH: not shown
VL: B1 VL with N93A, G94S
notes: IgG4 backbone was used
B14: 16H7 variant with light chain substitution N93R (antibody, human IgG4 S228P, lambda, V domains shown)
VH: not shown
VL: B1 VL with N93R, G94S
notes: IgG4 backbone was used
B15: 16H7 variant with light chain substitution N93S (antibody, human IgG4 S228P, lambda, V domains shown)
VH: not shown
VL: B1 VL with N93S, G94S
notes: IgG4 backbone was used
B16: 16H7 variant with light chain substitution H96S (antibody, human IgG4 S228P, lambda, V domains shown)
VH: not shown
VL: B1 VL with G94S, H96S
notes: IgG4 backbone was used
B17: 16H7 variant with light chain substitution D95Y (antibody, human IgG4 S228P, lambda, V domains shown)
VH: not shown
VL: B1 VL with G94S, D95Y
notes: IgG4 backbone was used
B18: 16H7 variant with light chain substitution H96L (antibody, human IgG4 S228P, lambda, V domains shown)
VH: not shown
VL: B1 VL with G94S, H96L
notes: IgG4 backbone was used
B19: 16H7 variant with light chain substitution S94A (antibody, human IgG4 S228P, lambda, V domains shown)
VH: not shown
VL: B1 VL with G94A
notes: IgG4 backbone was used
B20: 16H7 variant with light chain substitution H96K (antibody, human IgG4 S228P, lambda, V domains shown)
VH: not shown
VL: B1 VL with G94S, H96K
notes: IgG4 backbone was used
B21: 16H7 variant with light chain substitution D95I (antibody, human IgG4 S228P, lambda, V domains shown)
VH: not shown
VL: B1 VL with G94S, D95I
notes: IgG4 backbone was used
B22: 16H7 variant with light chain substitution D95A (antibody, human IgG4 S228P, lambda, V domains shown)
VH: not shown
VL: B1 VL with G94S, D95A
notes: IgG4 backbone was used
B23: 16H7 variant with light chain substitution H96E (antibody, human IgG4 S228P, lambda, V domains shown)
VH: not shown
VL: B1 VL with G94S, H96E
notes: IgG4 backbone was used
B24: 16H7 variant with light chain substitution N93Y (antibody, human IgG4 S228P, lambda, V domains shown)
VH: not shown
VL: B1 VL with N93Y, G94S
notes: IgG4 backbone was used
B25: 16H7 variant with light chain substitution H96W (antibody, human IgG4 S228P, lambda, V domains shown)
VH: not shown
VL: B1 VL with G94S, H96W
notes: IgG4 backbone was used
B26: 16H7 variant with light chain substitution H96Q (antibody, human IgG4 S228P, lambda, V domains shown)
VH: not shown
VL: B1 VL with G94S, H96Q
notes: IgG4 backbone was used
B27: 16H7 variant with light chain substitution H96T (antibody, human IgG4 S228P, lambda, V domains shown)
VH: not shown
VL: B1 VL with G94S, H96T
notes: IgG4 backbone was used
B28: 16H7 variant with light chain substitution H96G (antibody, human IgG4 S228P, lambda, V domains shown)
VH: not shown
VL: B1 VL with G94S, H96G
notes: IgG4 backbone was used
B29: 16H7 variant with light chain substitution D95H (antibody, human IgG4 S228P, lambda, V domains shown)
VH: not shown
VL: B1 VL with G94S, D95H
notes: IgG4 backbone was used
B30: 16H7 variant with light chain substitution H96Y (antibody, human IgG4 S228P, lambda, V domains shown)
VH: not shown
VL: B1 VL with G94S, H96Y
notes: IgG4 backbone was used

Key:
[1] = target: cell surface receptor composed of the tyrosine kinase receptor FGFR1c and co-receptor beta-Klotho (KLB) (human, UniProt P11362 22-822; Q86Z14 1-1044); experiment: cell-based or functional assay
beta-Klotho (KLB) = target: T1, beta-Klotho (KLB); experiment: BLI (Octet) off-rate screening, mAb from supernatant on anti-hIgG Fc sensor, 5 nmol/L KLB;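 further: dissociation followed for 1800 s in D-PBS plus 0.1% BSA, antibody supernatants applied at 25 µg/mL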

Sequence of cell surface receptor composed of the tyrosine kinase receptor FGFR1c and co-receptor beta-Klotho (KLB) (P11362 22-822, one chain of several): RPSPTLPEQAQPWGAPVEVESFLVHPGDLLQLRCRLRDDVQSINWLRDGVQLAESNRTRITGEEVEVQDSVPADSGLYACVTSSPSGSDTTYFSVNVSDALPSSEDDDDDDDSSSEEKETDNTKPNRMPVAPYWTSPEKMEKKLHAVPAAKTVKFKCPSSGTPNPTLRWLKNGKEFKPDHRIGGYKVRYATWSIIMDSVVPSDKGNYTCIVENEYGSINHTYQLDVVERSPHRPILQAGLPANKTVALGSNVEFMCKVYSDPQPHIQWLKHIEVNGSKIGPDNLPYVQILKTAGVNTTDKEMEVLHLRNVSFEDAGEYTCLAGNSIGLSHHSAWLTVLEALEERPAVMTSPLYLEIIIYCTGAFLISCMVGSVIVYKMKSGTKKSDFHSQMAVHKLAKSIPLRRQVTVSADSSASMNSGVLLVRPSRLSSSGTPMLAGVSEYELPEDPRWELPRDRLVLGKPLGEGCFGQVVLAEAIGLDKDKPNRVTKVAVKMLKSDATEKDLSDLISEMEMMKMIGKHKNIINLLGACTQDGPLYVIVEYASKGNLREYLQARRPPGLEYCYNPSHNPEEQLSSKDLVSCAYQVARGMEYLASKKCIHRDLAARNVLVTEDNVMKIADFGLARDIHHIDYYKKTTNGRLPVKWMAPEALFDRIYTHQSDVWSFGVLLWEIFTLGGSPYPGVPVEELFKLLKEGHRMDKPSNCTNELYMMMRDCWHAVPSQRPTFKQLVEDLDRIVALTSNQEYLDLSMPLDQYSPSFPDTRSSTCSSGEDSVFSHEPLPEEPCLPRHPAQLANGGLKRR

| Binder | Mean E max, Luciferase gene reporter assay [1] | Mean EC50, Luciferase gene reporter assay [1] | koff (beta-Klotho (KLB)) |
| --- | --- | --- | --- |
| B1 | 100% | 0.146 nM | 6.8e-05 s⁻¹ |
| B2 | 100% | 0.111 nM | 2.2e-05 s⁻¹ |
| B3 | 102% | 0.095 nM | 0.00014 s⁻¹ |
| B4 | 8% |  | 1.4e-05 s⁻¹ |
| B5 | 103% | 0.161 nM | 3.1e-05 s⁻¹ |
| B6 | 107% | 0.148 nM | 5.8e-05 s⁻¹ |
| B7 | 108% | 0.123 nM | 3.8e-05 s⁻¹ |
| B8 | 91% | 0.13 nM | 4.1e-05 s⁻¹ |
| B9 | 108% | 0.139 nM | 4e-05 s⁻¹ |
| B10 | 100% | 0.165 nM | 2.2e-06 s⁻¹ |
| B11 | 112% | 0.143 nM | 4.4e-05 s⁻¹ |
| B12 | 99% | 0.138 nM | 1e-07 s⁻¹ |
| B13 | 101% | 0.108 nM | 7.5e-06 s⁻¹ |
| B14 | 100% | 0.186 nM | 5e-05 s⁻¹ |
| B15 | 101% | 0.105 nM | 3.4e-05 s⁻¹ |
| B16 | 102% | 0.097 nM | 3e-05 s⁻¹ |
| B17 | 4% |  | 0.00013 s⁻¹ |
| B18 | 98% | 0.176 nM | 0.00013 s⁻¹ |
| B19 | 99% | 0.107 nM | 4.6e-05 s⁻¹ |
| B20 | 98% | 0.179 nM | 6.4e-05 s⁻¹ |
| B21 | 4% |  | 0.00016 s⁻¹ |
| B22 | 12% |  | 0.0002 s⁻¹ |
| B23 | 100% | 0.122 nM | 1.1e-05 s⁻¹ |
| B24 | 105% | 0.108 nM | 6.5e-05 s⁻¹ |
| B25 | 103% | 0.155 nM | 0.00012 s⁻¹ |
| B26 | 104% | 0.106 nM | 5e-05 s⁻¹ |
| B27 | 110% | 0.11 nM | 1.8e-05 s⁻¹ |
| B28 | 95% | 0.13 nM | 0.00015 s⁻¹ |
| B29 | 33% | 29.7 nM | 8.1e-06 s⁻¹ |
| B30 | 103% | 0.134 nM | 6.9e-05 s⁻¹ |
